Experimental findings from patent US20230257458A1 (SUNSHINE LAKE PHARMA, published 2023) are described below.

What is called Kd is the equilibrium constant for the complex coming apart. A higher Kd goes with lower affinity. A word on the koff: it is the first-order rate constant of dissociation. A higher koff goes with fast dissociation. As usually defined, the kon is the second-order rate constant of association.

For assay [1], the target named is T1, recombinant CLC (R&D systems, 962-CL-050) (UniProt Q9UBD9 28-225).
T1 sequence (looked up): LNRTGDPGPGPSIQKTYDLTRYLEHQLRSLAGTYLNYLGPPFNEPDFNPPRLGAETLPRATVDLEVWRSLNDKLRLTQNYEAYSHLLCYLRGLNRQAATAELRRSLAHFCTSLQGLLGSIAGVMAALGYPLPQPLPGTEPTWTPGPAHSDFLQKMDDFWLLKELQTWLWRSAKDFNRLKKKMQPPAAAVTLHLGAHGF
Put plainly: ELISA, cytokine coated. In general terms: ELISA stands for enzyme-linked immunosorbent assay.

For assay [2], the target named is T2, recombinant CNTF (R&D systems, 257-NT-010) (UniProt P26441 2-200).
T2 sequence (looked up): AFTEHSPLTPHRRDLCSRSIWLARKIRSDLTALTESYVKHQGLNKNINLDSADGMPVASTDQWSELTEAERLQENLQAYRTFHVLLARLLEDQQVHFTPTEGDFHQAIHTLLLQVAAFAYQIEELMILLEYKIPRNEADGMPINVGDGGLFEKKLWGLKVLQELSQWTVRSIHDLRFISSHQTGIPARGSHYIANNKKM
Put plainly: ELISA, cytokine coated.

Assay [3] addresses T3, recombinant CT-1 (R&D systems, 612-CD-010) (UniProt Q16619 2-201, limits assumed).
T3 sequence (looked up): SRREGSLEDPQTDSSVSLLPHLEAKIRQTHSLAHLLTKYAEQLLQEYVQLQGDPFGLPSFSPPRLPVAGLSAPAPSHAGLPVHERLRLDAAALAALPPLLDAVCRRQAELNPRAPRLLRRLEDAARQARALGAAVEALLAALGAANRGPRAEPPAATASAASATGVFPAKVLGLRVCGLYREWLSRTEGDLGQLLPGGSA
The experiment in a line: ELISA, cytokine coated.

Assay [4] concerns the target T4, recombinant IL-27 (R&D systems, 2526-IL-010) (UniProt Q8NEV9 29-243; Q14213 21-229).
T4 sequence (looked up) 1: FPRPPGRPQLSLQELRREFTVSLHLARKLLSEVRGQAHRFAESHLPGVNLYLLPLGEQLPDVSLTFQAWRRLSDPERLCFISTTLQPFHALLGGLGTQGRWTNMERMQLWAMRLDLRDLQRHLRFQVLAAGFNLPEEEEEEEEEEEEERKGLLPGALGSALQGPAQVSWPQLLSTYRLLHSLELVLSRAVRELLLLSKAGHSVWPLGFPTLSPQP
T4 sequence (looked up) 2: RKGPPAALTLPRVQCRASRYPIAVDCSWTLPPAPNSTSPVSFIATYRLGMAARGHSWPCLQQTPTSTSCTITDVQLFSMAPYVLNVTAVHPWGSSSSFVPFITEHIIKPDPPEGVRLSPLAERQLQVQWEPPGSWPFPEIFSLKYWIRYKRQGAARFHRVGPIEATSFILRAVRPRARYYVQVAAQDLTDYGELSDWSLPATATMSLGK
Put plainly: ELISA, cytokine coated.

Assay [5] concerns the target T5, recombinant IL-31 (Peprotech, 200-31) (UniProt Q6EBC2 24-164).
T5 sequence (looked up): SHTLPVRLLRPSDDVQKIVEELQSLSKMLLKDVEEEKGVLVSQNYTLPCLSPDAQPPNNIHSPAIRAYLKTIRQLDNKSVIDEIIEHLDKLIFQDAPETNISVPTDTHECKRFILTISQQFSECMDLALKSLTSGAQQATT
Put plainly: ELISA, cytokine coated.

Assay [6] has as its target recombinant IL-6 (Sinobiological-10395-HNAE) (UniProt P05231 30-212). The experiment in a line: ELISA, cytokine coated.
The target of assay [7] is recombinant LIF (Peprotech, 300-05) (UniProt P15018 23-202). Put plainly: ELISA, cytokine coated.
recombinant LIF (Peprotech, 300-05), sequence (P15018 23-202 limits assumed): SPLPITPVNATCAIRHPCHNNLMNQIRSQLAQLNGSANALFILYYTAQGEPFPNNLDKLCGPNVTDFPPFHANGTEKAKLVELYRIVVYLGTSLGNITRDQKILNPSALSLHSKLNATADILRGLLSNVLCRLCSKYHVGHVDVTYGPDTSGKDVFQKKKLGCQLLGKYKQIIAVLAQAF
The target in assay [8] is T6, recombinant OSM (Genscript-z03132) (UniProt P13725 26-234, limits assumed).
T6 sequence (looked up): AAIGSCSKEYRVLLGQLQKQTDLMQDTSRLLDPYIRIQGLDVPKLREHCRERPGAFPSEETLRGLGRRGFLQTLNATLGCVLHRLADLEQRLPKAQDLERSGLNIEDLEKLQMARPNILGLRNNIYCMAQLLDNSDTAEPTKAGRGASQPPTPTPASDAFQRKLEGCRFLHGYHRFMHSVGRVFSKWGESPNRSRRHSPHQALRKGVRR
Put plainly: ELISA, cytokine coated.

The target of assay [9] is T7, IL-11 protein (UniProt P20809 22-199, limits assumed).
T7 construct: also called IL-11 antigen
T7 sequence (looked up): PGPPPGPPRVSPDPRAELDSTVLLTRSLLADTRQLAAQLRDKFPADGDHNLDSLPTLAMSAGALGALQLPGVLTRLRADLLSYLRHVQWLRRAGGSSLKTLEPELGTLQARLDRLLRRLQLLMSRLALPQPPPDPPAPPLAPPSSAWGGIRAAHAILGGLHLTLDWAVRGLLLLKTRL
The experiment in a line: SPR (Biacore), IgG captured, IL-11 6.25-400 nM as analyte. The procedure:
(§1) The measure method included the steps of capturing the humanized antibody at a flow rate of 10 ul/min. […] Finally the chip was regenerated with 10 mM glycine buffer.
Background: In SPR one partner is held on a chip, and binding of the other changes the refractive index at the surface.

The target in assay [10] is T2, recombinant CNTF (R&D systems, …). Put plainly: ELISA, cytokine coated. The source holds these as a separate data set.
Assay [11] deals with T7, IL-11 protein. The experiment in a line: SPR (Biacore), antibody captured, 400 nM IL-11 as analyte. As for the experimental part:
as §1

B1: 5-20E11-5F2 (antibody, human IgG1, kappa, V domains shown)
VH: QVQLQQSGAELVRPGTSAKISCKASDYTFTNYWLGWLKQRPGHGLEWIGHIYPGGGYTNYNEKFKGKATLTADTSSSTAYMQLSSLTSEDSAVYFCARVRSGNDALDFWGQGTSVTVSS
VL: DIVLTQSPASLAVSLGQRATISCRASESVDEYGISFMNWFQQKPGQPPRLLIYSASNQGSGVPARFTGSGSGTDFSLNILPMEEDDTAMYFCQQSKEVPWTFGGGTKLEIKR
notes: also called 5-20E11-5F2 antibody; 5-20E11-5F2 mAb
B1: the binding result in assay [1], in assay [2], in [3], in [4], in assay [5] and in assay [6] was “no binding” throughout. The binding result in assay [7] and in assay [8] was “no binding” throughout. In addition, the values for the dissociation constant Kd in the assay with IL-11 protein [9] and with IL-11 protein [11] were 6.41 nM and 2.09 nM, respectively. For the same molecule, the off-rate constant (koff) with IL-11 protein [9] worked out at 0.000433 s⁻¹; with IL-11 protein [11] it was 0.000122 s⁻¹. For the same molecule, the values for the kon with IL-11 protein [9] and in the assay with IL-11 protein [11] were 67600 M⁻¹ s⁻¹ and 58400 M⁻¹ s⁻¹, respectively. In assay [10], the OD450 nm came out at 0.036.
